Test results: a protein production outcome set (Wang et al. 2014)

Experiment: label from the status in PepcDB records

Which protein production does the source give for “MTLETISSLLPMSAAGLAAVVSALAALGLGLGLWCARHRLRLLTAALEASGCGLITIEGGTRVFQANRQAARLLGRPEGLARDTQARKLFGGTLTAAVQGPGDGQPVRGTAHRPDHGWFPATLQSLGPCGGFARQRRLWLLRDLSDAQELERLRETEERFNASQRFGRIGVWDWNTETNEVFWSEEVFPMFGFTPAEITPTYDLFIAMVHPDDFVALTDSERACLSGTTLHDQEYRVIWRDGSVHWIRETADVLRESDGTPRRMVGVIREVTEEKEAQRQALRIAMLDPLTGLPNRATFLERLEADLGQVDETGVAVPLALAFIDLDDFKPINDTYGHLMGDRVLMTIAKRLSEAVRPQDMVARVGGDEFVALLRGCRDGARARTVAARLLDAVTAPVSIDTVIHRVRASIGISLYPSLVSTGDDLIATADQAMYVAKRAGGDPIRLHGE” here?
Its protein production is “failed”.

Which protein production does the source give for “MTLHLPGADGTLRAYEPRTEPLPTLRATSGSAFSSRTVFSAAHVVADPYADTTPDGPAAVDWDATLAFRRHLWSHGLGVAEAMDTAQRGMGLDWPTAAELIRRSAAEARATGGRIACGVGTDQLTATAATLADVRSAYEEQLAVVEESGAQAILMASRALAATAKGPDDYLEVYGHLLRQAAEPVILHWLGPMFDPALEGYWGSSDLDAATDTFLEVIAAHPDKVDGIKVSLLDAQREIDLRRRLPRGVRCYTGDDFNYPELIAGDEQGFSHALLGIFDPLGPLAAEAVRVLDTGDTDGFRALLDPTVELSRHLFRAPTRYYKTGVVFLAWLAGHQSHFTMVGGLQSARSLPHLARAYELADGLGLFPDPKPAEERMRNLLALYGVNA” here?
Its protein production is “failed”.

With “MTLKLKDKNTMLNSEKMVASIEKQDLHHADKYLKKALNEDPAEVLVELAEYLESIGFLPQAQEIYEKVRFDFPEVNVNLAQIAAEDGNIEEAFLYLDAIPEESEDYLSALIVKADLYQMEGLTDVARDKLLEASQLSDDSLIIFGLAEMEFELGNFEQAIQYYAKLDNRDLLATTGVSTYERIGKSYASLGKFEAAREFLEKAIEIEYNDTIAFELATLLYDQEEYQKANFYFKQIETMSSDFEGYEYNYALSLHAEHRTEEALRMTQQGISKNAFDVQLLLLASQLSYELHDTQSAESYLKQALPLAEDNDEIVLRLSALYLEEERFDDLVALADYEVDSVLARWNIARAYQALDDEEEAFQIYQDLSKDLADNPEFLQDYAYILREFGYRDQARVTAEKYLALVPDDVNMQTFLEDY” as the sequence, how does the protein production read?
The protein production was “failed”.

For “MTLLDSMIVMIYLLFIGIAAWLFRRFSTSSNDFLQGGGTMMWWMAGATAFMTQFSAWTFTGAAAKAYEDGISVMFIFWGNALGFFVAAAFFARRYRRLRVETAMEVIRVRFGHTSEQLFTWLSFPLTLIACAIWMNGLASFFSAVFAIEMSTTILAMGVIVTLIAVSGGAWTVSVTNVIQLVLLIAITLVIGYTALQHFDSPSEVFAYTTPIYGEQIRMPSLFVMWAIAMLLQQTMSNNHTLSCYRFLTTANDKDATKAAFVAGVLFVFAPVLWFMPAWFVAAQNIDLLAIYPALEQSANNAAYLYYIQHYMPQGLLGLVMVALVAATIAPLSSAHNRNAGIVVKSLYQVWFNPNATSRQQLMVGKIATIVSGILATVTALLLASVESYSLFDMMIVFAAFIQMPINIPSLLALVSLKTPNWSGWATVMVGCVVSLFMMFIFDVQWISSSPLTPRESKDLSVVATLAVHLLVTGGFFLSTRVFYAKESPSIQQSRTALSIQLATPISDEELSPINHKQGLYVGSITALAGMLLILAGVVLAGSSQSIFVAIGCIVLLFSLFLLQPTLHSKRAWQKQKTK”, which protein production is on record?
Its protein production is “failed”.

For “MTLLFRYLFRNNLQVILPTLAVGTGLYLLSDLFDRLDDILEAGVPGNVAIWYFVAKTPLIISQILPAVFLLAALIQLCLMSRDRELMALQAGGVSFGAIARFFVVYGLLWAVLQLGFSQVLGVAGERESARIWQEQVRGRTPGTRDLTNVWFTDDNHVIHLEVVTPALRKGQGFAAYGLAADGIHIDTVIRAKAFTGTAGTWKLQDVEVFSTRDFGHAKLPEMSIAIGQDPQDFAVIDPGADPQRLPLWQLGDAVEKLRTAGSNVEGLRTAWHMKLAYAASLVVMGLLAVAMVTWRDNIYLATGLALVFTFLFYTMFTIGSTLGQKGIVSPPIAAWGADILVGVVASARLLLVLRPRSLR”, which protein production is on record?
The protein production was “failed”.

Which protein production does the source give for “MTLLNDIQVWTTACAYDHLIPGRGVGVLLDDGSQVALFRLDDGSVHAVGNVDPFSGAAVMSRGIVGDRGGRAMVQSPILKQAFALDDGSCLDDPRVSVPVYPARVTPEGRIQVARVAV” here?
Its protein production is “failed”.

Which protein production does the source give for “MTLNIYTEEWAPISFSVDGKPDGLAVQVVQEIQKRIDNQDPIKVVPWARGWKIITEQPNTVLFTMTRTAERERMFSLIGPVAVGTTNFYALKNSNLEHHHHHH” here?
Its protein production is “failed”.

Which protein production does the source give for “MTLPAPWRVRHLPLLLLLLAAPLLALANSDPLPSWKDGPSKQGILAFVQAVTTQGSPDYVKAAERIAVFDNDGTLWSEQPAYFEVLFAFDEIKRLAPQHPEWKTRQPFQAVLEGDHQALAASGMHGLLQIIGATHTGISSEAFIDNARRWLAEARHPKTGRPFNQMIYQPMLEMLDYLRSQDFKTYIVSGGDTAFMRAFAESAYGIPPEQVIGSNFVTQWQFQDGQPSILRTAKLAHNDDGPGKPESIDGIIGRRPLLAFGNSDGDLQMLQWTAAGSGKRFMALVHHTDAAREWAYDRKSQVGRLDQALDQAQQHGWTLVDMAAEWRRIYPFEPLAPEQAQ” here?
Its protein production is “failed”.

With “MTLPIPSSPPRIKINLPCFQYVGTEMSVDIITSIWFMTLTEFATFMPKRDMCPKPASIPPAAPTVENTVPTTIPQINRRSSITSSSSTTVDNFVIKIYQVYRRMQTLTLEISTTKRSVLNKLKRASLTFQQFKNLLYLCLLEYYKNTKDVKPFLSVSFLEKFVKGKENLPFENEKIKSYREKLKELWEKEIGSDTVKALARQVSKEVKSVLEKWKKGERAFLPRPRKLKKVHKFTVPTNPNMLVDKRKLKRRRENSIVVRLGISFGAVKVKIPQGINIRDVKITWYEDTEVIFRISYEVPKAQKELLKEKWLSIDLGVRNLVSCISNDENLRSFIVDGNPLKSFNQWVNKLSAKLRSEGKERLERKLWRYRKKRIKGFFHQVANLIVRVCLERGIGRVIIPNSLNEEYQKDSEKGARFNQEFRFIPLGELVKMIEYKCELCGIEVVKEDESWTSKVSSVSGNIEVLKEEIPEGEVKKLKFEGRRIKRGLFRDRRLKKVFNADLNGALNLAIKALGKKVREEFLSLRNWLDKLSRPVKVNLFRYPASLPVLWEIAGSKSCSPKGDSEGHFAGSVSDLITFAHF” as the sequence, how does the protein production read?
The protein production was “failed”.

Which protein production does the source give for “MTLSAIQPNDMALYHYDSCPFCAKTRHAINELDLNIELRNIQKNHQHRIELQQGGNKTQVPCLRIGQSNGKAQWLYESGDIINFLRNRK” here?
Its protein production is “failed”.

Which protein production does the source give for “MTLSKRLALLGAQSAITLAKPRGLGSSLGLLDRRPFPYRQFSELTKANGRRAFLVDTLALVRSLEAQGVPSKQAEAITSAITEVLNDSLENVSESFVSKAEMQKIEMIQDSNLSKFKSEVKSSQVTSTLVV” here?
The protein production was “failed”.

Which protein production does the source give for “MTLTLGEFIKILEATGYPVAYSHFTATPGNPVPAPPYICFLVDGSANLMADNKVYHKINDVNIELYTTKKDLVAEAKLEQVLDDHEIPYGSYGTFIESENMYQKFYETRLI” here?
The protein production was “failed”.

Which protein production does the source give for “MTLTLLLLIFILISFISALTIIFITVKKGIFFNRLYLQSIIVCILFFTNWILYLSTFYALLPEKISEFLFLPIWFFLCILSFITFWREWRNNRVFSICIGFLSFISFLFVLFLLVLSGM” here?
The protein production was “failed”.

Which protein production does the source give for “MTLVTALIVLLVVLGVFFTLVAAVGVLRLPDVYTRSHAATKADTLGAGFAIAAVGLYFGTAGELVRAGLLLVFIYVTNPTAAHAITRAAYSQDVDVWTVDDNDTGTDTASAADGGDSQ” here?
Its protein production is “failed”.

With “MTMDGDSSTTDASQLGISADYIGGSHYVIQPHDDTEDSMNDHEDTNGSKESFREQDIYLPIANVARIMKNAIPQTGKIAKDAKECVQECVSEFISFITSEASERCHQEKRKTINGEDILFAMSTLGFDSYVEPLKLYLQKFREAMKGEKGIGGAVSATDGLSEELTEEAFTNQLPAGLITADGQQQNVMVYTTSYQQISGVQQIQFS” as the sequence, how does the protein production read?
Its protein production is “failed”.

For “MTMEPRVLRREEWDSWYGSLIRAFGGVPEPAEELELFRELTRVDRSIGVWERDGEAEACVGTTGSFDFRMTVPGGAQVRAAGVTMVSVAATHRRRGVLTSMMRRQLDDVRAWGEPLAVLTASEPAIYGRFGYGAATFSLSAEIDTSRVRLSVPAGTDDVRLRYAAPADVLDACEAVYARLVPGRPGMLARRPGWERLALLDPESGRDGASPLQCVVARRGGEVTGFARFRVRPAWGPEGAGGTVVLDDLAGLDPATEAALWRFLYDVDLTSRLAVRGRPVDEAWQYQVSDIRRCRPESRDALYVRLVDVGAALAARTYQAPVDVVFEVEDAFCPWNAGRWRLSGDAKGASCERTSDGADLALSVRELGAAYLGGVRLSSLGAAGRVREVRAGALAEASVGFGSDVAPWLPHGF”, which protein production is on record?
Its protein production is “failed”.

Which protein production does the source give for “MTMKETFTLVATAAAGLEAVVGRELRELGYETQVENGKVRFQGDVRAIAETNLWLRAADRIKIVVGEFPARTFEELFQGVFALDWENYLPLGAKFPISKAKCVKSKLRNEPSVQAISKKAVVKKLQKYFHRPEGVPLQETGAEFKIEVSILKDKATVLIDTTGASLFKRGYRTDKGGAPIKENMAAAILELSNWYPDKPLIDPTCGSGTFCIEAAMIGMNIAPGFNRDFAFEAWNWVGKDLVQSVRDEADSKANYDVALDIMGCDIDSRMVEIAKANAREAGLEDVVKFKQMRLQDLKTDKINGVIISNPPYGERLLDDKAVDILYNEMGQTFAPLKTWSKFILTSDEQFESKYGMKADKKRKLYNGTLRVDLYQYFGERVRRSEARKVN” here?
The protein production was “failed”.

Which protein production does the source give for “MTMPIFNISDDVDLVPAMPAEGRDGGSYRRQIWQDDVENGTIVAVWMAEPGIYNYAGRDLEETFVVVEGEALYSQADADPVKIGPGSIVSIAKGVPSRLEILSSFRKLATVIPKP” here?
Its protein production is “not failed”.

With “MTMRRVKGGLVQAVRVARGGAVAWLSLCMLMVGGQALAQQAITAPASNAVERVEQASTGESTVVTVTLKDTPAQKPVEFSTQQPARIAIDFFGTAFAQGRANYQYGGKLLRAASVVQIGDRTRVVLDLARQSQYKSEIRGNQYVLTLGAAPTASATPVPTFAAPAPTAGVERPSVRNIDFRRGEELAGRVVVDLSTSNSAINIAQQGQNLVVDFAGATLPQSLRRRFDVSDFGTPVQAMRATDNGTGARLVIEPRGNWQYSSYQTDTQFVVEVRPTKEDPNKLISGPGYRGERMSLNFQNIDIRSLLQVFADFTNLNIVTSDSVTGTLSLRLKDVPWDQALQIVLDSKGLASRRNGNVLWVAPRNELATKEKAELESQQQVTELEPLRSQVFRLNYQRADDVRNMLLGTGGTAGGGAAASRILSKRGSLTSDARTNQLFVSDIPSKLEEVQAFLLKIDIPVRQVMIEARIVEADDTFSRNLGAKLGFAAKTNGAGYGNTYSNVVSPVTKDATWDNSAAVSLPANGINGVNAASVAVSLFNAGAGRFLALELSALEADGRGKIISSPRVVTADNIKALIEQGTEVPYQQATSSGATSVSFKKANLKLEVTPKITPDGNVFLDVDVNKDSLGTQTTNGFAINTKHVQTQVLVENGGTVVIGGIYTQNERTDVNKVPLLGDIPVLGNLFKSTAKTNDRTELLVFLTPRVLSDQLSLK” as the sequence, how does the protein production read?
The protein production was “failed”.

For “MTMTLSAKDLENISKLAYLNEDSEHSAKLTQEVSAIMDFVDQLKTIDTSQIAPLFHPLALNQRLRPDEVTEAECLAELEAMAPLFEDNLYLVPKVISSDK”, which protein production is on record?
The protein production was “failed”.

With “MTMTRTPLTQAAATLKARFREIGYTTSGINNVLGPDFVAAMHAGQPAAVRFHLDSLPESDLNLALRAFVLRDQVRVEKLAALLGEALKTLVDASLVEISGEYAQFLIDIRPHLIAGRQQWVFSDADASMTQHVPGPDHVLGVGAASLSLLQATPTSPTGSVLDLGTGSGIQVLGQAGAAQEIIATDVHPRALDFAEATLVDSGIPTQLVEGSWFEPVRGRTFDRIIANPPFVVGPPEIGHVYRDSGMDLDGATALVVKEACAHLNPGGTAHLLGAWVHSADQSWQQRVAEWLPDNGYVAWVIERDAVSPAQYVGTWLSDESLDLRSPEAAARTTAWLNHFEKAKVQGVGFGFIAIQRLEEDEADEKSDILAESMTQYFEDPLGPEIEEYFTRTAWLREQTRDSILSSRFKVRPGVAREQISLADAEEGMGFSPVTLRLTRTDGPRWSHDVDEHVASIVAGLNPHGLPFEEILEMYAMAQGIEGESLHNGAIAALVDLIRHGLVLPADLLDS” as the sequence, how does the protein production read?
Its protein production is “failed”.
